Measurements: the supplement of paper PMC12042874
± gives the uncertainty stated by the source.

Experiment: amyloid nucleation score (Sup35N fusion, yeast selection) (log enrichment); library NNK2; higher = more nucleation; inactive = no reads after selection
Summary of the method: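 On medium lacking adenine and uracil, psi-negative yeast expressing peptides of 20 random codons fused to Sup35N were grown 7 days at 30°C after a 24-hour induction with 100 μM copper sulfate. Illumina sequencing of input and output plasmid inserts gave the reads, and sequences under 100 input reads were excluded. The nucleation score is the DiMSum log enrichment of output over input reads, centred on the mode score of non-aggregating sequences.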
With CMTSKVLRLDYRRMMVNIDC the amyloid nucleation score was -0.58 ± 0.42. With CMTTYTNLIHIPIQVSTPKR the amyloid nucleation score was 7.51 ± 0.043. CMVIRSW showed an amyloid nucleation score of -0.064 ± 0.34. For CNDGMTTSDYWWCSARLDPY, the amyloid nucleation score was 0.345 ± 0.2. For CNFKINRAHNELPLDDLRNF, the amyloid nucleation score was “inactive”. CNFVRSYDCHQVKLSI gave an amyloid nucleation score of -1.18 ± 1.1. For CNILH, the amyloid nucleation score was 1.36 ± 0.3. With CNIVRSYCLL the amyloid nucleation score was -0.937 ± 0.5. CNKESFSMI gave an amyloid nucleation score of -0.791 ± 0.55. In the case of CNLCSDP, the amyloid nucleation score is reported as “inactive”. With CNLSSCGHSFINLSYEDLCQ the amyloid nucleation score was “inactive”. For CPDISGVSRHRAKRQKNWLY, the amyloid nucleation score was “inactive”. Substance CPMPITRSAVFACTITCSVA has an amyloid nucleation score of 5.99 ± 0.079. With CPRLCLMLLPFKTCMIGTRE the amyloid nucleation score was 0.57 ± 0.81. Work on CPSFMNSFDASRNIWIVPSG yielded an amyloid nucleation score of 3.28 ± 0.058. For CPSWFLSGDKCFYRGESSEN, the amyloid nucleation score was -0.184 ± 0.63. CPTFKIKRDMSLTHRLFNIY gave an amyloid nucleation score of -1.64 ± 0.54. In the case of CQSAASVL, the amyloid nucleation score is reported as -0.148 ± 0.31. For CQSRY, the amyloid nucleation score was -0.373 ± 1.1. For CRASG, the amyloid nucleation score was 0.409 ± 0.25. In the case of CRLLCVIGLYVDNLGPPLAR, the amyloid nucleation score is reported as -0.044 ± 0.35. With CRLVEAEYSSRKRLQVSLWA the amyloid nucleation score was 0.102 ± 0.79. With CRNQMQGWWYVWMVGVCRGS the amyloid nucleation score was “inactive”. Substance CRQISGNTNVRLGASSMRII has an amyloid nucleation score of -0.526 ± 0.55. Work on CRRGDLKDDEIYAMHLHRVS yielded an amyloid nucleation score of -1.12 ± 0.78. Work on CRTLSGCYQDCGAVNGVLRV yielded an amyloid nucleation score of 1.22 ± 0.3. With CRVLGQRRGASTNVSVHIVE the amyloid nucleation score was -0.097 ± 1.1. CRYEIKLCYDLMQNPLFTRS showed an amyloid nucleation score of -0.522 ± 0.41. In the case of CRYRLYYRCEVLEYLSDFTW, the amyloid nucleation score is reported as -0.492 ± 0.56. With CSAVAALLPILGMELIGTSI the amyloid nucleation score was -0.41 ± 0.55. Work on CSEVLRTFGKARHTEAR yielded an amyloid nucleation score of 0.501 ± 0.2. CSNLSV showed an amyloid nucleation score of 0.167 ± 0.28. CSRIHIV showed an amyloid nucleation score of -0.255 ± 1.1. Substance CSTLVRIR has an amyloid nucleation score of 0.723 ± 0.46. In the case of CSTVLRGCVLGQYLYGYSSG, the amyloid nucleation score is reported as -0.258 ± 0.41. For CSVCYFPEGNLFNGE, the amyloid nucleation score was “inactive”. In the case of CSWGCNDFRSCLALVMDCHA, the amyloid nucleation score is reported as 1.02 ± 0.61. CSYFMGLIVILRVKCRYMLK gave an amyloid nucleation score of -1.18 ± 0.32. For CTAYNITYMTATSRGMSC, the amyloid nucleation score was “inactive”. In the case of CTCKRLVLRVVVEWA, the amyloid nucleation score is reported as 1.82 ± 0.12. Substance CTCNLWYTLMCAFHASRLVH has an amyloid nucleation score of 0.327 ± 0.34. With CTFTRLRSSAGSGIRQTPRL the amyloid nucleation score was 0.048 ± 0.79. CTMYLALRGVW showed an amyloid nucleation score of 4.56 ± 0.056. With CTRMRPPYLEHQSCDRLSSR the amyloid nucleation score was 0.241 ± 0.54. For CTSCERSLAKRLQGWHIF, the amyloid nucleation score was -1.09 ± 0.63. In the case of CTVTK, the amyloid nucleation score is reported as 1.45 ± 0.11. In the case of CTYVYESRHQGIGVLASLSN, the amyloid nucleation score is reported as -0.784 ± 0.76. In the case of CVAVNLCVAALV, the amyloid nucleation score is reported as -0.049 ± 0.76. In the case of CVGSLQLHGVSRRCIRCWGR, the amyloid nucleation score is reported as 1.15 ± 0.4. With CVLQNWYSTSTPKSWLRGNV the amyloid nucleation score was 0.678 ± 0.41. For CVNSLALGRVSIVGISSGWW, the amyloid nucleation score was 0.284 ± 0.51. CVVVRSCI showed an amyloid nucleation score of -0.342 ± 1.1. Work on CWDCKLPHRPGVFMRNNHFK yielded an amyloid nucleation score of -0.015 ± 0.45. CWGNGGQKRLFVLFSFAY gave an amyloid nucleation score of 0.063 ± 1.1. Substance CWMFVVHIAIWGGVSLDGIV has an amyloid nucleation score of 0.208 ± 1.1. CWNACSLRLNDGAGDPGWRD gave an amyloid nucleation score of 0.36 ± 0.22. With CYAGFCN the amyloid nucleation score was “inactive”. In the case of CYMCWFNIILLQKFKRQGVL, the amyloid nucleation score is reported as 4.29 ± 0.063. For CYSVFSLY, the amyloid nucleation score was -0.81 ± 1. In the case of CYTNYIYVLAAMWTSEIRKV, the amyloid nucleation score is reported as “inactive”. DALLNFTRLSITNNVNIGP showed an amyloid nucleation score of 5.894 ± 0.046. Work on DANDSSWEGG yielded an amyloid nucleation score of 0.669 ± 0.74. In the case of DARFLPVVLRKKTDSICYVN, the amyloid nucleation score is reported as -0.177 ± 0.79. Work on DARKNVDRSPSSLSEKVLSL yielded an amyloid nucleation score of 0.642 ± 0.34. With DCAWNFWFSLVYRLVISGHS the amyloid nucleation score was -0.38 ± 0.6. In the case of DCDMVFFLGIFFKSSGGKGN, the amyloid nucleation score is reported as 2.57 ± 0.083. In the case of DCFPLLLNRFRPEHYVRWHR, the amyloid nucleation score is reported as 0.887 ± 0.57. With DCLLCFFGSHSILVRPILKV the amyloid nucleation score was “inactive”. For DCLLGNSSPAV, the amyloid nucleation score was -0.594 ± 1.1. Work on DCLLSFVRVRSSPSVRY yielded an amyloid nucleation score of 4.47 ± 0.056. Work on DCQMRDNASVNIIVRFQYVY yielded an amyloid nucleation score of 5.08 ± 0.082. DCRIVREHLPCPSFFRSFSR showed an amyloid nucleation score of 0.164 ± 1.1. Work on DCRVGSLSAGRQLSARAAGK yielded an amyloid nucleation score of 0.633 ± 0.41. DCSCFYFF gave an amyloid nucleation score of 2.96 ± 0.08. DCSMVIMYFASGRSRALSNR gave an amyloid nucleation score of 4.48 ± 0.067. Work on DCVNGVLFDGSPHVYGFLEW yielded an amyloid nucleation score of 0.419 ± 0.32. Work on DDIAVCWNCFVRLILMMWED yielded an amyloid nucleation score of 1.57 ± 0.42. For DDIFIRKLFQYS, the amyloid nucleation score was “inactive”. DDLSMRVVRLRNVTLYHYFG showed an amyloid nucleation score of 3.21 ± 0.088. DDMTGDHRPSFRSMIMVGVI gave an amyloid nucleation score of 0.918 ± 0.67. With DDVMMILGNNTSYVLFNMPC the amyloid nucleation score was “inactive”. Work on DDWEVRN yielded an amyloid nucleation score of 0.231 ± 0.31. For DECAVPRSE, the amyloid nucleation score was 0.7 ± 0.51. DEEVSWRIG showed an amyloid nucleation score of 0.196 ± 0.46. Substance DEGKA has an amyloid nucleation score of -0.507 ± 0.42. Work on DFCYFSFRPLHLRFQNTDWP yielded an amyloid nucleation score of 0.007 ± 1.1. For DFFMTPGTLGIGTLSNISFY, the amyloid nucleation score was “inactive”. Work on DFMSSVFCQAVWVHAPRRVR yielded an amyloid nucleation score of 0.6 ± 0.74. With DFNSCRLTVHLRYTSVPCRY the amyloid nucleation score was 0.233 ± 0.74. In the case of DFNVSLSCHEKLMMVSFRWR, the amyloid nucleation score is reported as -0.373 ± 0.34. DFSLGLWRVTDIDYVSNVSL showed an amyloid nucleation score of 0.151 ± 0.8. With DFTVSHI the amyloid nucleation score was “inactive”. DGDICLLRYFFLTMILELAI showed an amyloid nucleation score of -2.02 ± 0.78. In the case of DGIRVLCLTALPFMWVH, the amyloid nucleation score is reported as “inactive”. For DGNFHNFLLCNNEMFREMDC, the amyloid nucleation score was 2.63 ± 0.13. Substance DGSERIPCLSNYHMLRLTNS has an amyloid nucleation score of -0.001 ± 0.32. Substance DGYIVFSRNAVNIFSVYFTG has an amyloid nucleation score of 6.212 ± 0.04. For DGYMMGALQNYCNCTRFVLN, the amyloid nucleation score was “inactive”. For DHAYYDTSCGIRTPFVMIVR, the amyloid nucleation score was “inactive”. Work on DHITVVAIKKEHLVEIIYVY yielded an amyloid nucleation score of -0.904 ± 0.35. Substance DHVLSFDSIVVWYLRIGGEE has an amyloid nucleation score of -0.656 ± 1.1. For DIDGWCTIYMDIVYMKTCPY, the amyloid nucleation score was 0.262 ± 0.56. DIDKGSTEGDVMEGKLVNNV showed an amyloid nucleation score of 0.171 ± 0.2. Work on DIHRPQRYISKYSSTREWVG yielded an amyloid nucleation score of -0.224 ± 0.32. In the case of DIKYCRSFCWLSTIFRTLGP, the amyloid nucleation score is reported as 0.249 ± 0.37. For DINKFVAVWCHYLSGKGLLP, the amyloid nucleation score was -0.359 ± 0.26. Work on DISVLSLQYMS yielded an amyloid nucleation score of -0.105 ± 0.8. In the case of DIWMAINVGAYGVCEFCVSR, the amyloid nucleation score is reported as 5.88 ± 0.071. For DIYFGDQNDCLKR, the amyloid nucleation score was -1.17 ± 0.64. Work on DKYITCVESWWPSILGGEKP yielded an amyloid nucleation score of 1.87 ± 0.23. DKYSWRKNGCGGWCVTTVVG showed an amyloid nucleation score of 0.573 ± 0.3. DLAFNFASWLCRAKFNGSRC gave an amyloid nucleation score of 5.04 ± 0.09. Substance DLDIC has an amyloid nucleation score of -0.2 ± 0.3. In the case of DLGPLFDCCSVYGGAECCIE, the amyloid nucleation score is reported as -0.1 ± 0.49. In the case of DLLHETML, the amyloid nucleation score is reported as -0.781 ± 1.1. For DLLRPSGMFFCYGQFYCLKC, the amyloid nucleation score was -1.05 ± 0.39. Work on DLMDVEGLSGPPLRSMQVLK yielded an amyloid nucleation score of 5.003 ± 0.05. With DLPYSSVIRKYMSKMWLHMN the amyloid nucleation score was 0.218 ± 0.36. Substance DLRLTSHIRSFIFAGVPVLF has an amyloid nucleation score of -1.65 ± 0.49. With DLSLESLRSNEVEAVNMFVF the amyloid nucleation score was “inactive”. DLVNV showed an amyloid nucleation score of 1.8 ± 0.38. For DLYIS, the amyloid nucleation score was 0.13 ± 0.8. Work on DMAKGVLRSLFGTA yielded an amyloid nucleation score of -0.154 ± 0.36. DMLPLMSAVPHSFSMLVWGE showed an amyloid nucleation score of -0.109 ± 0.36. Work on DMRLKGLTRVFTGDNRFSLL yielded an amyloid nucleation score of -0.064 ± 0.54. In the case of DMRTIGEHCW, the amyloid nucleation score is reported as 1.02 ± 0.52.
